{"source": "patent US7456147B2", "about": "“Controlled release of active agents utilizing repeat sequence protein polymers” (Dow Corning, Corporation, priority 2003, dated 2008)", "experiment": "Isoelectric point of SELP repeat sequence protein polymers", "assay_type": "physicochemical"}
{"substance": "SELP47K: silk-elastin repeat sequence protein block copolymer, head-[(GAGAGS)2(GVGVP)3GKGVP(GVGP)4(GAGAGS)2]13-tail, 886 amino acids", "values": [{"measurement": "pI of the protein", "value": 10.5}]}
